This note sets out measurements from US12428446B2, “Peptide compound or pharmaceutically acceptable salt thereof” (Eyebio Korea, priority 2019, dated 2025).

*1 amine or outer side, *2 acyl side, *3 side chain or, on linkers, in order; H or OH if unused. Primed or numbered codes have the meaning given here. Where no end group is shown, it is not given here. [ ]: non-standard residue; d: D form. The star is where a group is joined. Pro(trans-4-NH2) = O=C([C@@H]1C[C@@H](N[*:3])CN1[*:1])[*:2]; Pro(4-methylene) = C=C1CN[C@H](C(=O)O)C1; Asu′ = aspartimide (aminosuccinimide); Hyp = O=C(O)[C@@H]1C[C@@H](O)CN1; dHyp = O=C(O)[C@H]1C[C@H](O)CN1; Aib = CC(C)(N)C(=O)O; OiPr = CC(C)O*

This data set can be described thus: Evaluation of dissolution stability (content change on storage in dissolved state). The conditions noted are these: 1 mg/1 ml dissolved state, 40° C. and RH 75%. In kind it is physicochemical.

Take “Hyp-Gly-Gln-Asp-Val-Leu-Ala-Gly ([Hyp]GQDVLAG) [Example 24]”: the “Day 1 content (%)” value is 96.14%, the “Day 3 content (%)” value amounted to 95.71%, the “Day 7 content (%)” value is reported as 95.13% and the “Initial content (%)” value is recorded as 96.57%.
As to “Hyp-Gly-Gln-Asp-Gly-Leu-Ala-Gly ([Hyp]GQDGLAG) [Example 15]”, the “Day 1 content (%)” value is listed as 91.06%, the “Day 3 content (%)” value was found to be 81.63%, the “Day 7 content (%)” value is 70.56% and the “Initial content (%)” value is reported as 91.84%.
In the case of “Hyp-Gly-Gln-Asp-Ala ([Hyp]GQDA) [Example 33]”, the “Day 1 content (%)” value is 96.68%, the “Day 3 content (%)” value is on record as 89.94%, the “Day 7 content (%)” value is recorded as 86.76% and the “Initial content (%)” value was 99.46%.
In the same order, the values of “trans-4NH2-Pro-Gly-Gln-Asp-Gly-Leu-Ala ([Pro(trans-4-NH2)]GQDGLA) [Example 52]” are 86.35%, 74.65%, 54.51% and 96.55%.
On to “Gln-Asu-Gly-Leu-Ala-Gly (Q[Asu′]GLAG) [Example 118]”, for which the “Day 1 content (%)” value is listed as 92.71%, the “Day 3 content (%)” value came to 85.67%, the “Day 7 content (%)” value stood at 79.33% and the “Initial content (%)” value worked out at 96.15%.
Regarding “Hyp-Gly-Gln-Leu-Leu ([Hyp]GQLL) [Example 121]”, the “Day 1 content (%)” value amounted to 99.29%, the “Day 3 content (%)” value is on record as 99.13%, the “Day 7 content (%)” value came to 99.22% and the “Initial content (%)” value is recorded as 99.39%.
Taken in the same sequence, the figures for “Hyp-Ala-Gln-Asp-Gly ([Hyp]AQDG) [Example 73]” were 89.07%, 82.64%, 75.49% and 92.11%.
With “Hyp-Gly-Gln-Asp (isopropyl ester)-Gly-Leu ([Hyp]GQD(OiPr)GL) [Example 116]”, the “Day 1 content (%)” value was 85.82%, the “Day 3 content (%)” value came out at 84.31%, the “Day 7 content (%)” value came to 83.50% and the “Initial content (%)” value turned out to be 88.64%.
Consider “Hyp-Gly-Gln-Glu-Gly-Leu ([Hyp]GQEGL) [Example 68]”, for which the “Day 1 content (%)” value was 98.25%, the “Day 3 content (%)” value is listed as 97.51%, the “Day 7 content (%)” value turned out to be 96.93% and the “Initial content (%)” value was 98.71%.
For “Hyp-Gly-Gln-Leu-Leu-Leu ([Hyp]GQLLL) [Example 98]”, the “Day 1 content (%)” value amounted to 99.07%, the “Day 3 content (%)” value is 98.86%, the “Day 7 content (%)” value is recorded as 98.74% and the “Initial content (%)” value amounted to 99.03%.
Regarding “Hyp-Gly-Gln-Asp-Gly (isopropyl ester) [Example 106]”, the “Day 1 content (%)” value worked out at 81.47%, the “Day 3 content (%)” value was found to be 75.61%, the “Day 7 content (%)” value came out at 68.25% and the “Initial content (%)” value amounted to 89.54%.
Consider DGLAGPK [Example 19], for which the “Day 1 content (%)” value is given as 89.94%, the “Day 3 content (%)” value was 79.26%, the “Day 7 content (%)” value is reported as 71.50% and the “Initial content (%)” value came out at 95.90%.
As to PGQDGL [Example 77], the “Day 1 content (%)” value stood at 86.66%, the “Day 3 content (%)” value was 80.88%, the “Day 7 content (%)” value amounted to 69.44% and the “Initial content (%)” value was found to be 92.01%.
For “Hyp-Gly-Gln-Ala-Leu ([Hyp]GQAL) [Example 120]”, the “Day 1 content (%)” value is 98.87%, the “Day 3 content (%)” value came to 98.73%, the “Day 7 content (%)” value turned out to be 98.44% and the “Initial content (%)” value came out at 99.07%.
Taken in the same sequence, the figures for “Hyp-Gly-Gln-Asu-Gly ([Hyp]GQ[Asu′]G) [Example 100]” were 93.43%, 85.30%, 74.12% and 97.58%.
With QEGLAG [Example 70], the “Day 1 content (%)” value was 90.84%, the “Day 3 content (%)” value is reported as 88.52%, the “Day 7 content (%)” value is on record as 85.77% and the “Initial content (%)” value turned out to be 92.41%.
Consider “trans-4NH2-Pro-Gly-Gln-Asp-Gly ([Pro(trans-4-NH2)]GQDG) [Example 42]”, for which the “Day 1 content (%)” value is on record as 65.09%, the “Day 3 content (%)” value was 52.07%, the “Day 7 content (%)” value is 37.87% and the “Initial content (%)” value was determined as 71.84%.
Consider “Hyp-Gly-Gln-Asp (isopropyl ester)-Gly (isopropyl ester) [Example 110]”, for which the “Day 1 content (%)” value was 85.18%, the “Day 3 content (%)” value amounted to 72.44%, the “Day 7 content (%)” value came to 91.84% and the “Initial content (%)” value came to 98.00%.
Taken in the same sequence, the figures for “Hyp-Gly-Gln-Asp-Gly-Val-Ala ([Hyp]GQDGVA) [Example 72]” were 95.91%, 90.84%, 82.07% and 97.08%.
Consider “Hyp-Gly-Gln-D Asp-Gly-Leu ([Hyp]GQ[dD]GL) [Example 61]”, for which the “Day 1 content (%)” value worked out at 87.65%, the “Day 3 content (%)” value is reported as 83.70%, the “Day 7 content (%)” value was determined as 56.36% and the “Initial content (%)” value is given as 92.80%.
Regarding “Hyp-Gly-Gln-Glu-Phenyl Gly-Leu-Ala [Example 94]”, the “Day 1 content (%)” value amounted to 98.77%, the “Day 3 content (%)” value is 98.43%, the “Day 7 content (%)” value stood at 98.15% and the “Initial content (%)” value was found to be 98.59%.
In the same order, the values of “Hyp-Gly-Gln-Asp (isopropyl ester)-Gly-Leu (isopropyl ester) [Example 112]” are 92.78%, 86.07%, 80.91% and 95.34%.
As for “D Hyp-Gly-Gln-Asp-Gly-Leu-Ala ([dHyp]GQDGLA) [Example 50]”, the “Day 1 content (%)” value is on record as 89.44%, the “Day 3 content (%)” value amounted to 80.15%, the “Day 7 content (%)” value is reported as 56.11% and the “Initial content (%)” value is 96.67%.
On to “Hyp-Gly-Gln-Leu-Val-Leu ([Hyp]GQLVL) [Example 99]”, for which the “Day 1 content (%)” value stood at 99.44%, the “Day 3 content (%)” value was 99.28%, the “Day 7 content (%)” value is recorded as 99.15% and the “Initial content (%)” value is 99.45%.
In the same order, the values of “Hyp-Gly-Gln-Asp-Val-Leu-Ala ([Hyp]GQDVLA) [Example 23]” are 95.25%, 94.22%, 90.56% and 96.40%.
Take “Hyp-Gly-Gln-Glu-Gly-Leu-Ala ([Hyp]GQEGLA) [Example 69]”: the “Day 1 content (%)” value was 96.94%, the “Day 3 content (%)” value is recorded as 96.32%, the “Day 7 content (%)” value worked out at 95.69% and the “Initial content (%)” value was found to be 97.12%.
Take “Hyp-Val-Gln-Asp-Gly ([Hyp]VQDG) [Example 74]”: the “Day 1 content (%)” value was 92.95%, the “Day 3 content (%)” value amounted to 85.57%, the “Day 7 content (%)” value was 79.66% and the “Initial content (%)” value worked out at 98.01%.
Turning to “Hyp-Gly-Gln-Ala-Val ([Hyp]GQAV) [Example 119]”, the “Day 1 content (%)” value was found to be 96.33%, the “Day 3 content (%)” value amounted to 96.18%, the “Day 7 content (%)” value was 95.89% and the “Initial content (%)” value was 96.39%.
Consider “Hyp-Gly-Gln-Glu-Val-Leu-Ala ([Hyp]GQEVLA) [Example 87]”, for which the “Day 1 content (%)” value is 98.07%, the “Day 3 content (%)” value stood at 96.57%, the “Day 7 content (%)” value worked out at 94.38% and the “Initial content (%)” value is on record as 99.14%.
In the case of “Pro-Gly-Gln-Asp-Gly (PGQDG) [Example 76]”, the “Day 1 content (%)” value was found to be 90.01%, the “Day 3 content (%)” value is given as 82.34%, the “Day 7 content (%)” value stood at 69.13% and the “Initial content (%)” value stood at 95.07%.
As for “Hyp-Gly-Gln-Glu-Val-Leu ([Hyp]GQEVL) [Example 89]”, the “Day 1 content (%)” value amounted to 99.07%, the “Day 3 content (%)” value is 98.81%, the “Day 7 content (%)” value came out at 98.43% and the “Initial content (%)” value was 99.57%.
With [Hyp]GQ[dD]GLA [Example 64], the “Day 1 content (%)” value worked out at 91.62%, the “Day 3 content (%)” value was 86.18%, the “Day 7 content (%)” value is given as 48.37% and the “Initial content (%)” value stood at 96.19%.
Turning to “4-methylene-Pro-Gly-Gln-Asp-Gly-Leu ([Pro(4-methylene)]GQDGL) [Example 49]”, the “Day 1 content (%)” value amounted to 86.53%, the “Day 3 content (%)” value is reported as 79.49%, the “Day 7 content (%)” value came out at 60.01% and the “Initial content (%)” value came to 94.35%.
Consider “Hyp-Gly-Gln-Asp-Ala-Leu ([Hyp]GQDAL) [Example 36]”, for which the “Day 1 content (%)” value was determined as 94.13%, the “Day 3 content (%)” value is reported as 90.58%, the “Day 7 content (%)” value came out at 85.95% and the “Initial content (%)” value is 95.40%.
For “Hyp-Gly-Gln-Asp-Aib ([Hyp]GQD[Aib]) [Example 85]”, the “Day 1 content (%)” value is on record as 92.08%, the “Day 3 content (%)” value was 88.07%, the “Day 7 content (%)” value came out at 75.04% and the “Initial content (%)” value came to 92.62%.
With “Hyp-Gly-Gln-Asp-Val ([Hyp]GQDV) [Example 21]”, the “Day 1 content (%)” value is listed as 79.91%, the “Day 3 content (%)” value amounted to 77.37%, the “Day 7 content (%)” value is listed as 69.10% and the “Initial content (%)” value was found to be 84.05%.
Consider GLAGPK [Example 26], for which the “Day 1 content (%)” value is reported as 89.41%, the “Day 3 content (%)” value stood at 87.99%, the “Day 7 content (%)” value was found to be 85.43% and the “Initial content (%)” value came out at 92.17%.
